Test [1] addresses T1, human B7H6 on HCT-15 cells (human, UniProt Q68D85 25-454).
T1 sequence (looked up): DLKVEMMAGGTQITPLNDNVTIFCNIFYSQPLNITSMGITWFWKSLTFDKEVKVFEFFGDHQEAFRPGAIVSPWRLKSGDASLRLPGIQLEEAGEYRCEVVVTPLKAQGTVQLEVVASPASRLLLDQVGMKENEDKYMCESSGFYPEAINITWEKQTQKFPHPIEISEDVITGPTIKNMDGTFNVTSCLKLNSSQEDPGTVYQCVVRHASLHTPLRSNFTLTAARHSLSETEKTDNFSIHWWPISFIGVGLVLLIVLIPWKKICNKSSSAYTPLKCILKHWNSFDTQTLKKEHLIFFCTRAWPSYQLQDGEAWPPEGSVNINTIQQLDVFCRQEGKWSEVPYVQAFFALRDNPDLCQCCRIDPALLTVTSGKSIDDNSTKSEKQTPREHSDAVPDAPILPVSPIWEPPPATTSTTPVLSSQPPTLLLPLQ
Nature of the test: cell-based or functional assay.

Test [2] addresses T2, Fc-His-tagged human B7H6 ECD (human).
T2 construct: also called huB7H6-ECD-Fc-His; recombinant human B7H6 ECD
Put plainly: ELISA, plate coated with Fc-His-tagged human B7H6 ECD, anti-human IgG F(ab')2-peroxidase, TMB. As to the method:
To assess binding of B7H6/CD3 binding proteins to recombinant human Fc-His-tagged B7H6 ECD and human Fc-His-tagged Ala-mutated B7H6 extracellular proteins as described in Example 3, MediSorp™ plates (Nunc, 467320) were coated with […] recombinant proteins overnight at 4° C. The next day, plates were blocked with 0.5% bovine serum albumin (BSA) in phosphate buffered saline (PBS) for 1 hour at room temperature (RT). Subsequently plates were washed with […] containing 0.05% TWEEN®20 viscous liquid and B7H6/CD3 binding proteins were incubated at concentrations ranging from 0.00001 to 10 μg/ml. After an additional washing step, bound B7H6/CD3 binding proteins were detected by a peroxidase conjugated goat anti-human IgG F(ab′)₂-specific secondary antibody (Jackson Immunoresearch) and visualized by TMB substrate solution (Bender Med Systems).

B1: B7H6#11/CD3#1 (bispecific antibody)
chain 1: not shown
chain 2: EAVVTQEPSLTVSPGGTVTLTCRSSTGAVTTSNYANWVQEKPGQLPRGLIGGTNKRAPWVPARFSGSLLGGKAALTLSGAQPEDEAEYFCALWYSNLWVFGGGTKLTVLGQPKAAPSVTLFPPSSEELQANKATLVCLISDFYPGAVKVAWKADGSPVNTGVETTTPSKQSNNKYAASSYLSLTPEQWKSHRSYSCQVTHEGSTVEKTVAPAECSGGGGSEGKSSGSGSESKSTEGKSSGSGSESKSTGGGGSEVQLVESGGGLVQPGGSLKLSCAASGFTFNTYAMNWVRQAPGKGLEWVARIRSKYNNYATYYADSVKDRFTISRDDSKNTAYLQMNNLKTEDTAVYYCVRHGNFGNSYVSWFAYWGQGTLVTVSAASTKGPSVFPLAPSSKSTSGGTAALGCLVKDYFPEPVTVSWNSGALTSGVHTFPAVLQSSGLYSLSSVVTVPSSSLGTQTYICNVNHKPSNTKVDKRVEPKSCDKTHTCPPCPAPEAAGGPSVFLFPPKPKDTLMISRTPEVTCVVVDVSHEDPEVKFNWYVDGVEVHNAKTKPREEQYNSTYRVVSVLTVLHQDWLNGKEYKCKVSNKALPAPIEKTISKAKGQPREPQVYTLPPSREEMTKNQVSLSCAVKGFYPSDIAVEWESNGQPENNYKTTPPVLDSDGSFFLVSKLTVDKSRWQQGNVFSCSVMHEALHNRFTQKSLSLSPG
notes: scFab-Fc heterodimer, one B7H6 chain and one CD3 chain
For B1, the “EC50 [nM], 72 hour cytotoxicity assay, non-stimulated T-cells (Donor #1) as effector cells, HCT-15 cells as target cells” value in test [1] came out at 0.77 nM. Also, the “EC50 (read off the curve)” value in test [2] is about 0.05 µg/mL.

B2: B7H6#9/CD3#1 (bispecific antibody, human IgG1, kappa, lambda, L234A L235A)
chain 1: DIVLTQSPVSLAVSLGQRATISCRASESVDNFGVSFMNWFQQKPGQPPKLLIYAASNQGSGVPARFSGSGSGTDFSLNIHPLEEDDTAMYFCQQSKEVPWTFGGGTRLEIKRTVAAPSVFIFPPSDEQLKSGTASVVCLLNNFYPREAKVQWKVDNALQSGNSQESVTEQDSKDSTYSLSSTLTLSKADYEKHKVYACEVTHQGLSSPVTKSFNRGECGGGGSEGKSSGSGSESKSTEGKSSGSGSESKSTGGGGSQVQLQQPGAEMVRPGSSVKLSCKASDYTFTHYWIHWVKQRPLEGLEWIGIIGPSDNEIHYNQDFKDKATLTVDKSSNTAYLHLNSLTSEDSAVYYCARQIISMVVGTEYFDVWGTGTTVTVSSASTKGPSVFPLAPSSKSTSGGTAALGCLVKDYFPEPVTVSWNSGALTSGVHTFPAVLQSSGLYSLSSVVTVPSSSLGTQTYICNVNHKPSNTKVDKRVEPKSCDKTHTCPPCPAPEAAGGPSVFLFPPKPKDTLMISRTPEVTCVVVDVSHEDPEVKFNWYVDGVEVHNAKTKPREEQYNSTYRVVSVLTVLHQDWLNGKEYKCKVSNKALPAPIEKTISKAKGQPREPQVYTLPPSREEMTKNQVSLWCLVKGFYPSDIAVEWESNGQPENNYKTTPPVLDSDGSFFLYSKLTVDKSRWQQGNVFSCSVMHEALHNHYTQKSLSLSPG
chain 2: B1 chain 2
notes: as for B1
On to B2, for which, in test [1], the “EC50 [nM], 72 hour cytotoxicity assay, non-stimulated T-cells (Donor #1) as effector cells, HCT-15 cells as target cells” value was found to be 0.44 nM. Moreover, in test [2], the “EC50 (read off the curve)” value was about 0.05 µg/mL.

Source of the values: US20210107983A1 (Boehringer Ingelheim, published 2021).
